By Kd is commonly meant the constant that tells how readily two partners part at equilibrium. As a reminder, the koff is the rate constant with which the complex falls apart. In general, kon refers to a measure of how fast the partners come together.

Experimental findings from article PMC8563947 (Scientific Reports, 2021) are described below.

The target in test [1] is T1, green fluorescent protein (Aequorea victoria (assumed; GFP variant …, UniProt P42212 = GFP).
T1 construct: green fluorescent protein (GFP, 27 kDa); the GFP construct may be there; also called GFP; recombinant GFP; source: E. coli BL21 (DE3), purified (Ni-NTA agarose)
The test is described as follows: SPR; Biacore T-200, multicycle; 265-274 RU of recombinant GFP immobilised on CM5 chip; Nbs flowed in five dilutions; HBS-EP+ buffer, 25 °C, 30 μL/min. As to conditions: both partners purified.

In test [2] the target is T1, green fluorescent protein. Described as above. As to conditions: both partners purified. The source holds these as a separate data set.

Residue numbers refer to the chain shown, from its start. Names and notes keep the numbering of the source.

B1: anti-GFP mutant nanobody Y37A without peptide barcode (VHH)
VHH: QVQLVESGGALVQPGGSLRLSCAASGFPVNRYSMRWARQAPGKEREWVAGMSSAGDRSSYEDSVKGRFTISRDDARNTVYLQMNSLKPEDTAVYYCNVNVGFEYWGQGTQVTVSS
notes: as the VHH chain of m2 with the stated change; source: P. pastoris, purified (Ni-NTA agarose)
Turning to B1, in test [1], the Kd is 16.4 nM, the koff turned out to be 0.0759 s⁻¹ and the kon was determined as 4.62e+06 M⁻¹ s⁻¹.

B2: anti-GFP mutant nanobody R57A without peptide barcode (VHH)
VHH: B1 VHH with A37Y, R57A
notes: as the VHH chain of m2 with the stated change; source: Pichia pastoris GS115, culture medium, purified (His SpinTrap)
As to B2, in test [2], the Kd amounted to 0.02 nM, the off-rate (koff) came to 6.72e-05 s⁻¹ and the association rate constant (kon) was 3.42e+06 M⁻¹ s⁻¹.

B3: anti-GFP mutant nanobody G50A without peptide barcode (VHH)
VHH: B1 VHH with A37Y, G50A
notes: as for B1
Turning to B3, the binding result in test [1] was “no binding”.

B4: anti-GFP mutant nanobody W47A without peptide barcode (VHH)
VHH: B1 VHH with A37Y, W47A
notes: as for B1
On to B4, for which, in test [1], the Kd was found to be 0.722 nM, the koff worked out at 0.00606 s⁻¹ and the kon amounted to 8.39e+06 M⁻¹ s⁻¹.

B5: anti-GFP mutant nanobody E103A without peptide barcode (VHH)
VHH: B1 VHH with A37Y, E103A
notes: as for B1
As for B5, in test [1], the binding result is “no binding”.

B6: anti-GFP mutant nanobody R35A without peptide barcode (VHH)
VHH: B1 VHH with R35A, A37Y
notes: as for B1
With B6, the binding result in test [1] was “no binding”.

B7: anti-GFP mutant nanobody F102A without peptide barcode (VHH)
VHH: B1 VHH with A37Y, F102A
notes: as for B2
Regarding B7, in test [2], the Kd is 0.121 nM, the koff is 0.000628 s⁻¹ and the kon was 5.2e+06 M⁻¹ s⁻¹.
